{"source": "paper PMC9426499"}
{"test_system": "ParRB(pJIR4165) (Clostridium perfringens plasmid pJIR4165)", "experiment": "SPR", "units": {"binding signal": "RU"}}
{"sequence": "AGGTATAAACTCAGTATATACATGATTGAA / TTCAATCATGTATATACTGAGTTTATACCTCCTACCCTACGTCCTCCTGC [parCB B17]", "binding signal": 368}
{"sequence": "TAGTATATATCTAGTATATACTAAATTTAT / ATAAATTTAGTATATACTAGATATATACTACCTACCCTACGTCCTCCTGC [parCB B21]", "binding signal": 377}
{"sequence": "TCACTATATGTATATACTGAATATATACAT / ATGTATATATTCAGTATATACATATAGTGACCTACCCTACGTCCTCCTGC [parCB B2]", "binding signal": 383}
{"sequence": "TTTATTAATTTCACTATATGTATATACTGA / TCAGTATATACATATAGTGAAATTAATAAACCTACCCTACGTCCTCCTGC [parCB B1]", "binding signal": 58}
{"test_system": "ParRD(pJIR3118) (Clostridium perfringens plasmid pJIR3118 (CN1020 gDNA))", "experiment": "SPR", "units": {"binding signal": "RU"}}
{"sequence": "AAATAATATCAAATAATATTATTTAATGTC / GACATTAAATAATATTATTTGATATTATTTCCTACCCTACGTCCTCCTGC [parCD D4]", "binding signal": 232}
{"sequence": "ACATTAAAAGATACTAATTAATATTATTTA / TAAATAATATTAATTAGTATCTTTTAATGTCCTACCCTACGTCCTCCTGC [parCD D12]", "binding signal": 250}
{"sequence": "AGGTTATTTAATGTTAAATGATATTAAATA / TATTTAATATCATTTAACATTAAATAACCTCCTACCCTACGTCCTCCTGC [parCD D9]", "binding signal": 213}
{"sequence": "ATACTAATTAATATTATTTAATTATTGACT / AGTCAATAATTAAATAATATTAATTAGTATCCTACCCTACGTCCTCCTGC [parCD D13]", "binding signal": 187}
{"sequence": "ATATTAAATAACATTAAAAGATACTAATTA / TAATTAGTATCTTTTAATGTTATTTAATATCCTACCCTACGTCCTCCTGC [parCD D11]", "binding signal": 236}
{"sequence": "ATGTTAAATGATATTAAATAACATTAAAAG / CTTTTAATGTTATTTAATATCATTTAACATCCTACCCTACGTCCTCCTGC [parCD D10]", "binding signal": 270}
{"sequence": "GAATAATATTAAATAATATCAAATAATATT / AATATTATTTGATATTATTTAATATTATTCCCTACCCTACGTCCTCCTGC [parCD D3]", "binding signal": 225}
{"sequence": "TTTATTAATTTCACTATATGTATATACTGA / TCAGTATATACATATAGTGAAATTAATAAACCTACCCTACGTCCTCCTGC [parCB B1]", "binding signal": 1.1}
{"test_system": "ParRC(pCW3) (Clostridium perfringens plasmid pCW3)", "experiment": "SPR", "units": {"binding signal": "RU"}}
{"sequence": "AAAAAACATCACAATTTTACATAATAGAAA / TTTCTATTATGTAAAATTGTGATGTTTTTTCCTACCCTACGTCCTCCTGC [parCC C16]", "binding signal": 311}
{"sequence": "AAAATGAAAAAAACATCACAATTTTACGGA / TCCGTAAAATTGTGATGTTTTTTTCATTTTCCTACCCTACGTCCTCCTGC [parCC C5]", "binding signal": 249}
{"sequence": "AAACATCACAATTTTACGGAAAATGCTTGA / TCAAGCATTTTCCGTAAAATTGTGATGTTTCCTACCCTACGTCCTCCTGC [parCC C6]", "binding signal": 282}
{"sequence": "AATATAAAAACATAAACATCACAATTTTAC / GTAAAATTGTGATGTTTATGTTTTTATATTCCTACCCTACGTCCTCCTGC [parCC C11]", "binding signal": 154}
{"sequence": "AATTAAAAACATCACAATTTTACGTAATGA / TCATTACGTAAAATTGTGATGTTTTTAATTCCTACCCTACGTCCTCCTGC [parCC C1]", "binding signal": 256}
{"sequence": "ACAATTTTACGTAATTTAGATTTTGCAAGT / ACTTGCAAAATCTAAATTACGTAAAATTGTCCTACCCTACGTCCTCCTGC [parCC C13]", "binding signal": 48}
{"sequence": "ATCACAATTTTACGTAATGACAGTTTGTTG / CAACAAACTGTCATTACGTAAAATTGTGATCCTACCCTACGTCCTCCTGC [parCC C2]", "binding signal": 54}
{"sequence": "ATTTTACGGAAAATGCTTGATTTAGATTGA / TCAATCTAAATCAAGCATTTTCCGTAAAATCCTACCCTACGTCCTCCTGC [parCC C7]", "binding signal": 9}
{"sequence": "CATAAACATCACAATTTTACGTAATTTAGA / TCTAAATTACGTAAAATTGTGATGTTTATGCCTACCCTACGTCCTCCTGC [parCC C12]", "binding signal": 348}
{"sequence": "GTAATTTAGATTTTGCAAGTAAAAAACATC / GATGTTTTTTACTTGCAAAATCTAAATTACCCTACCCTACGTCCTCCTGC [parCC C14]", "binding signal": 42}
{"sequence": "TTTATTAATTTCACTATATGTATATACTGA / TCAGTATATACATATAGTGAAATTAATAAACCTACCCTACGTCCTCCTGC [parCB B1]", "binding signal": -2.8}
{"sequence": "TTTTGCAAGTAAAAAACATCACAATTTTAC / GTAAAATTGTGATGTTTTTTACTTGCAAAACCTACCCTACGTCCTCCTGC [parCC C15]", "binding signal": 217}
